T1: Botryococcus braunii race B squalene synthase-like 1 (SSL-1), wild type, hexa-histidine tagged, SEQ ID NO: 2 (Botryococcus braunii, UniProt G0Y286)
T1 construct: FPP substrate with or without NADPH
T1 sequence (G0Y286 1-403): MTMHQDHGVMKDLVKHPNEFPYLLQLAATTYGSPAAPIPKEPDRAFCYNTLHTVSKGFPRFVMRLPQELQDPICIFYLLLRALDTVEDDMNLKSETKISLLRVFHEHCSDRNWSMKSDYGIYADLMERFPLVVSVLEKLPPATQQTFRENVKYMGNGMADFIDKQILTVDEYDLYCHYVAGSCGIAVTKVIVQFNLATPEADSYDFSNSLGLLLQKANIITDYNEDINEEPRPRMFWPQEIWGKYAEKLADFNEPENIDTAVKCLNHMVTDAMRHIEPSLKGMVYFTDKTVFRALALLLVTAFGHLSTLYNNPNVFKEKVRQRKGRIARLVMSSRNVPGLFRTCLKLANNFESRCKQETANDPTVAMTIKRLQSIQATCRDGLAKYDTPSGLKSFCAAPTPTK


Assays:
[1] = target: T1, Botryococcus braunii race B squalene synthase-like 1 (SSL-1), wild type, hexa-histidine tagged, SEQ ID NO: 2; assay: Michaelis-Menten enzyme kinetics of the SSL-1 reaction (radiolabeled FPP to PSPP); assay type: biochemical
Procedure: FIG. 5 depicts Michaelis-Menten enzyme kinetics of the SSL-1 reaction. Enzyme assays (50 μl) were set up as described in the methods section with purified SSL-1 (0.2-1.0 μg), 0.1% triton X-100, ±2 mM NADPH, and the indicated concentration of ^3H-FPP. Assays were incubated for 15 min at 37° C. and stopped by addition of 50 μl 0.5 M EDTA. The reactions were then extracted 3× with 200 μl water saturated 1-butanol and pooled in a 4 ml glass screw cap vial. The butanol was evaporated with a stream of nitrogen gas and the white residue was resuspended in 2 ml of acid phosphatase solution (20% 1-propanol (v/v), 100 mM sodium acetate pH 4.7, 0.1% Triton X-100, 10 units sweet potato acid phosphatase) and incubated overnight (12-16 h) in a 28° C. shaker. […] The standards were visualized with iodine vapors and the zones corresponding to FOH (rf=0.65) and PSOH (rf=0.45) were scraped and analyzed by scintillation spectroscopy. […] The data was analyzed using the SigmaPlot Enzyme Kinetics 1.3 software. […]
Purification of the bacterial expressed enzymes was afforded by the amino-terminal hexa-histidine tag using His-Select Cobalt affinity gel (Sigma) columns according the manufacturer's recommendations. Recovery of proteins with the expected molecular sizes was determined by SDS-PAGE. […]

[2] = Purified bacterial-expressed enzymes incubated with FPP, products by GC-MS or TLC/scintillation counting; assay type: biochemical; conditions: FPP as substrate, enzyme assayed alone
Excerpt: (§1) FIG. 6 depicts the functional characterization of the squalene synthase-like genes of Botryococcus braunii race B. The squalene synthase-like genes, SSL-1, SSL-2 and SSL-3, were expressed in yeast separately (SSL-1 (B), SSL-2(C) or SSL-3(D)) or in combinations (SSL-1+SSL-2(E), SSL-1+SSL-3(F)) and the hexane extractable metabolites profiled by GC-MS. The chemical profile of yeast not engineered with any gene constructs serves as the background control (A). […] Data (J) represents mean±S.E.M. obtained from three independent experiments (n=3). The chromatograms (A-I) are also annotated for the elution behavior of botryococcene (1), squalene (2), presqualene alcohol (3) and bisfarnesyl ether (4).
The recombinant vectors were transformed into E. coli strain BL21(DE3) according to the manufacturer's recommendations (Novagen). The selected lines were grown with kanamycin selection at 37° C. with vigorous shaking until the cultures reached an optical density of ˜0.8 (OD600 nm), then expression of the corresponding SSL gene induced by addition of 0.5 mM isopropylthio-β-D-galactoside (IPTG) and the cultures incubate for an additional 3 to 20 h with shaking at room temperature. One hundred ml of the culture was subject to centrifugation at 4,000 g for 10 min, the pelleted cells resuspended in 10 ml of lysis buffer containing 50 mM NaH2PO4, pH 7.8, 300 mM NaCl, 10 mM imidazole, 1 mM MgCl2, 1 mM PMSF, 1% glycerol (v/v), then sonicated 4× for 10 sec with a microprobe sonicator at 60% maximum power. The samples were cooled on ice for 2 min between sonication treatments. The sonicate was centrifuged at 16,000 g for 10 min at 4° C. and the supernatant used for purification of the hexa-histidine tagged enzymes.
Purification of the bacterial expressed enzymes was afforded by the amino-terminal hexa-histidine tag using His-Select Cobalt affinity gel (Sigma) columns according the manufacturer's recommendations. Recovery of proteins with the expected molecular sizes was determined by SDS-PAGE. The purified protein fractions were concentrated using Amicon Ultra (0.5 ml, 10K) centrifugation filter units and stored in 300 mM NaCl, 20 mM Tris-HCl pH 7.5, 5 mM dithiothreitol, 2 mM MgCL2, 50% glycerol (v/v) at −20° C. for 2-3 weeks without noticeable loss of activity.
Typical enzyme assays were initiated by mixing aliquots of purified enzyme with 50 mM Mops, pH 7.3, 20 mM MgCl2, 2.5 mM 2-mercaptoethanol, 10 μM [1-^3H]-FPP (˜2×10^5 dpm total), and 2 mM NADPH in total reaction volume of 50 μl. Reactions were incubated at 37° C. for 1 h and then extracted with 100 μl n-hexane or 100 ul MTBE. Forty μl of the n-hexane or MTBE extract was then spotted onto silica TLC plates with authentic standards of botryococcene and squalene and developed with n-hexane, or standards of bisfarnesyl ether and developed with n-hexane:MTBE, 25:1. The standards were visualized with iodine vapors and TLC zones corresponding to the standards were scrapped and analyzed by scintillation spectrometry. If Botryococcus lysate was added to enzyme assays, typically 5 μl of lysate (corresponding to 10 μg total protein) prepared from B. braunii cells according to Okada et al. (1) was added. […] Extracts were resuspended in 50 μl hexane and an aliquot analyzed by GC-MS with a Varian CP-3800 GC coupled to a Varian Saturn 2200 MS/MS (Varian Medical Systems) using a Supelco SLB-5 ms fused silica capillary column (30 m×0.25 mm×0.25 μM film thickness, Supelco). […]

[3] = test system: TN7 yeast line; assay: Expression of SSL genes in TN7 yeast line, hexane extractable metabolites by GC-MS; assay type: cell-based; conditions: gene expressed separately in yeast
Excerpt: as §1
FIG. 10 includes a comparison of botryococcene production in yeast engineered with different configurations of SSL-1 and SSL-3. Yeast line TN7 was engineered with the SSL-1 and SSL-3 genes on separate plasmids (squares), with gene fusions (SSL-1 fused to SSL-3 via a triplet repeat of GGSG (triangles), or vice versa (diamonds)), or with 63 or 71 amino acids of the carboxy terminus of the Botryococcus squalene synthase, sequences containing a membrane spanning domain, appended to the carboxy termini of the SSL-1 and SSL-3 enzymes, respectively (circles). The data represents mean±S.E.M.
The various recombinant yeast expression vectors were introduced into the TN7 yeast line via lithium acetate transformation, followed by selection for uracil and leucine auoxtrophic growth (Takahashi, et al. (2007)). […] Individual colonies of TN7 and the various TN7-transformants were subsequently grown in 25 ml of YPDE (nutrient rich) or Yeast Synthetic Drop-out medium (selection) for the indicated time at 25° C. before analyzing the cultures for production of novel triterpene components. In brief, 1 ml aliquots of the culture were combined with 1 ml of acetone, vigorously mixed, and incubated at room temperature for 10 min. One ml of hexane was added and mixed vigorously for 60 sec. […] The dried extract was resuspended in 50-500 μl of n-hexane and a 1 μl aliquot analyzed by GC-MS as described above. […]

[4] = Secondary enzyme assays of SSL-3 or SSL-2 with PSPP versus FPP; assay type: biochemical; conditions: 2 mM NADPH, 1 μg enzyme, 37° C., 15 min
Procedure: Two primary enzyme assays (500 μl) were set up with 20 μg of purified SSL-1 or Nicotiana benthamiana squalene synthase (TSS) plus 40 μM ^3H-FPP. The assays were incubated at 37° C. for 1 h, then extracted 3× with 500 μl water saturated 1-butanol, pooled, and evaporated under a stream of nitrogen gas. The white residue was resuspended in 50 μl of 25 mM NH4HCO3 in 70% ethanol (v/v). An aliquot of the resuspension was analyzed by the acid phosphatase assay (described in supplemental FIG. 4) and shown to consist of 45% and 40% PSPP for the SSL-1 and TSS primary incubations, respectively. […] It was calculated that 1 μl of each resuspension contained ˜150 pmoles of 3H-PSPP. […] For comparison, enzyme assays were also set up containing 3 μM ^3H-FPP, 2 mM NADPH and either 1 μg each of SSL-1 plus SSL-3, or SSL-1 plus SSL-2. Additional control assays contained 5 μM ^3H-FPP, 2 mM NADPH, and either 1 μg of SSL-3 or SSL-2. The reactions were incubated at 37° C. for 15 min, stopped by addition of 50 μl 0.5 M EDTA, and extracted with 100 μl n-hexane. Aliquots of the hexane extracts, along with standards of squalene and botryococcene, were separated by silica TLC using n-hexane as the developing solvent. Standards were visualized with iodine vapors and the corresponding zones were analyzed by scintillation spectroscopy. […]

Molecule | stimulation of activity by NADPH addition ([1]; NADPH addition, radiolabeled FPP substrate) | effect of NADPH addition on enzyme activity (difference) ([1]; ±2 mM NADPH, 3H-FPP substrate, 15 min at 37° C.) | squalene or botryococcene biosynthesis by purified enzyme in vitro [2] | products accumulating in yeast [3] | biosynthesis from PSPP versus FPP [4]
NC(=O)C1=CN([C@@H]2O[C@H](COP(=O)(O)OP(=O)(O)OC[C@H]3O[C@@H](n4cnc5c(N)ncnc54)[C@H](OP(=O)(O)O)[C@@H]3O)[C@@H](O)[C@H]2O)C=CC1 [NADPH] | no stimulation | less than 4% |  |  | 
SSL-3: Botryococcus braunii race B squalene synthase-like 3 enzyme; converts PSPP to botryococcene (protein) MKLREVLQHPGEIIPLLQMMVMAYRRKRKPQDPNLAWCWETLIKVSRSYVLVIQQLPEVLQDPICVNYLVLRGLDTLQDDMAIPAEKRVPLLLDYYNHIGDITWKPPCGYGQYVELIEEYPRVTKEFLKLNKQDQQFITDMCMRLGAEMTVFLKRDVLTVPDLDLYAFTNNGPVAICLTKLWVDRKFADPKLLDREDLSGHMAMFLGKINVIRDIKEDVLEDPPRIWWPKEIWGKYLKDLRDIIKPEYQKEALACLNDILTDALRHIEPCLQYMEMVWDEGVFKFCAVPELMSLATISVCYNNPKVFTGVVKMRRGETAKLFLSVTNMPALYKSFSAIAEEMEAKCVREDPNFALTVKRLQDVQALCKAGLAKSNGKVSAKGA |  |  | neither bacterial-expressed, purified enzymes exhibited any botryococcene biosynthesis | did not cause the accumulation of any distinct products | efficiently catalyze the biosynthesis of squalene and botryococcene, respectively, from PSPP but not FPP

— patent US8822187B1, “Polypeptides, nucleic acid molecules, and methods for synthesis of triterpenes” (University of Kentucky Research Foundation, priority 2011, dated 2014)
